Measurements taken from US20060216705A1 (SUMITOMO CHEMICAL, published 2006).

T1: chimera protein of the VP16 transcription activating region and the bHLH-PAS region part of Sim2 (human, UniProt Q14190 1-500)
T1 construct: domain: bHLH-PAS region part; also called VP16-Sim2; pVP16-Sim2 (bHLH-PAS) product
T1 sequence: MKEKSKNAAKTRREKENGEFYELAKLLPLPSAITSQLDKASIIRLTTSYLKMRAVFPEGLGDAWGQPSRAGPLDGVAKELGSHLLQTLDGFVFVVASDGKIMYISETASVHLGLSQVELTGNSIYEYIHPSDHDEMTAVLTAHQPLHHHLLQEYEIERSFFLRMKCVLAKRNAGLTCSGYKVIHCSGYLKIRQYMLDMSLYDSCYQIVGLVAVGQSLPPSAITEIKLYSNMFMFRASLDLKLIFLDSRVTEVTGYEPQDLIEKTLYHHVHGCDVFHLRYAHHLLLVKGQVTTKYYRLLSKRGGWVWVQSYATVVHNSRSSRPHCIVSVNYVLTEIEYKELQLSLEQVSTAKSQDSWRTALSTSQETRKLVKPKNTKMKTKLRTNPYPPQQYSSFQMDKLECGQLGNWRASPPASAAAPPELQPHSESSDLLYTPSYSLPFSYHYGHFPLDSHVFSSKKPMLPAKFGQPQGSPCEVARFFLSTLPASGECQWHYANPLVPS

T2: chimera protein of the VP16 transcription activating region and the bHLH-PAS region part of Clock (human, UniProt O15516 1-530)
T2 construct: domain: bHLH-PAS region part; also called VP16-Clock; pVP16-Clock (bHLH-PAS) product
T2 sequence: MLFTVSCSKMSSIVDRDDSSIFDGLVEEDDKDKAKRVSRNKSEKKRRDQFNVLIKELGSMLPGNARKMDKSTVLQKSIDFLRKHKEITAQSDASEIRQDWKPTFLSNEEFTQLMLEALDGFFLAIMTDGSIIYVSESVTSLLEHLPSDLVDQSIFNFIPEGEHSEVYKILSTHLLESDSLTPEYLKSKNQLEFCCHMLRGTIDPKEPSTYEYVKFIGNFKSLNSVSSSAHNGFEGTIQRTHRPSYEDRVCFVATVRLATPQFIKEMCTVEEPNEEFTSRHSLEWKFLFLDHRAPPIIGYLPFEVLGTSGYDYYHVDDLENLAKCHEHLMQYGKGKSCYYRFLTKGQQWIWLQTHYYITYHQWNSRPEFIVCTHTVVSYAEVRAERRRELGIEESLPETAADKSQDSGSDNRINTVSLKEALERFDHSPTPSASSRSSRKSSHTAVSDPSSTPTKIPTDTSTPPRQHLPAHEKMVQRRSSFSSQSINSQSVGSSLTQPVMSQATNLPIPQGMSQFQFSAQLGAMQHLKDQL

B1: chimera protein of the DNA-binding region of GAL4 and the bHLH-PAS region part of the present transcription regulatory factor (mNXF) (other)
chain: MKLLSSIEQACDICRLKKLKCSKEKPKCAKCLKNNWECRYSPKTKRSPLTRAHLTEVESRLERLEQLFLLIFPREDLDMILKMDSLQDIKALLTGLFVQDNVNKDAVTDRLASVETDMPLTLRQHRISATSSSEESSNKGQRQLTVSMYRSTKGASKARRDQINAEIRNLKELLPLAEADKVRLSYLHIMSLACIYTRKGVFFAGGTPLAGPTGLLSAQELEDIVAALPGFLLVFTAEGKLLYLSESVSEHLGHSMVDLVAQGDSIYDIIDPADHLTVRQQLTMPSALDADRLFRCRFNTSKSLRRQSSGNKLVLIRGRFHAHPPGAYWAGNPVFTAFCAPLEPRPRPGPGPGPGPGPASLFLAMFQSRHAKDLALLDVSESVLIYLGFERSELLCKSWYGLLHPEDLAQASSQHYRLLAESGDIQAEMVVRLQAKHGGWTWIYCMLYSEGPEGPFTANNYPISDT
notes: Expressed in HeLa cells for the two-hybrid assay; also called Gal4-mNXF; Gal4-NXF

Columns and labels:
[1] = biological target: T1, chimera protein of the VP16 …; test: mammalian two-hybrid assay in HeLa cells (Gal4-NXF + VP16-X, luciferase reporter)
[2] = biological target: T2, chimera protein of the VP16 …; test: as above
[3] = biological target: B1; test: mammalian two-hybrid assay in HeLa cells (Gal4-NXF + VP16-NXF, luciferase reporter)

| Binder | binding result [1] | binding result [2] | binding result [3] |
| --- | --- | --- | --- |
| B1 | no binding | no binding |  |
| chimera protein of the VP16 transcription activating region and the bHLH-PAS region part of the present transcription activating factor (mNXF) (other, also called VP16-NXF; pVP16-NXF (bHLH-PAS) product) MYRSTKGASKARRDQINAEIRNLKELLPLAEADKVRLSYLHIMSLACIYTRKGVFFAGGTPLAGPTGLLSAQELEDIVAALPGFLLVFTAEGKLLYLSESVSEHLGHSMVDLVAQGDSIYDIIDPADHLTVRQQLTMPSALDADRLFRCRFNTSKSLRRQSSGNKLVLIRGRFHAHPPGAYWAGNPVFTAFCAPLEPRPRPGPGPGPGPGPASLFLAMFQSRHAKDLALLDVSESVLIYLGFERSELLCKSWYGLLHPEDLAQASSQHYRLLAESGDIQAEMVVRLQAKHGGWTWIYCMLYSEGPEGPFTANNYPISDT |  |  | no binding |
